We go through 20 sequences from a protein production outcome set (Wang et al. 2014).

The nature of this series: label from the status in PepcDB records.

“MSAQVPRELLQLREQVRRQPGDFVAWLMLADAELGMGVTAAGETAVQRALALHPGHPEAVARLGRVRWAQQRHAEAATLLQQASDLVPQHPGIALWLGHALEDAGQPEQAAAAYTRAHKLLPDEPYITAQLLNWRRRLCDWRELDSLAAQVRTAVTQGEAAVEPFAFLSEDASAAEQLACARTRAQAIASSVHPLPAATLRSRGTLQLGFVSNGFSAHPTGLLTVALFEALRRRQPDLQVQLFATSPDDGSDIRARLAQATRMHDVTALGHLATAQHIRNQGIDLLFDLRGWGGGGRPEVFALRPAPVQLNWLAYPGTSGAPWMDYVLGDAIALPTWLEPFYSEQVLRLPRAFQPSDTSRTVAEAPSRAQCGLPDHAVVLCCFNNSYKLNPRSMARMLAVLRAVPGSVLWLLSGPGEADARLRAAAQAQGVHAQRLVFMPKLPHPQYLARYRHADLFLDTHPYNAHTTASDALWAGCPVLTTPGQTFAARVAGSLNHRLGLDEMNVADDATFVAKAIELASDAEALRGVRAQLAEQRLRSGLFDMDGFADDLAALLRGIAQRRGWLGV”: the protein production entry is reported as “failed”.
With “MSASTSSHRPIKGILKNKSSSGSSVATSGQQSGGTIQDVKRKKSQKWDESSILAAHRATYRDYDLMKANEPGTSYMSVQDNGEDSVRDVEGEDSVRGVEGKEATDASDHSCEVDEQESSEAYMRKILLHKQEKKRQFEMRRRLHYNEELNIKLARQLMWKELQSEDNENEETPQGTNEEKTAAEESEEAPLTGGLQTQSCDP” the entry was “failed”; with “MSAVATFSVALANEVATVRLMAEVALLIGPGDVVTLSGDLGAGKTAAARAMIRYLADDDALEVPSPTFTLVQTYDLPPYPLLHADLYRVEDPSELEEIGLSPLPDGTVALIEWPERAGAALPEDRIDIALSHRPALGPSARAAEITGHGKAVKQVERLAALRSFIETAGYADAERRHMPGDASTRSYARLQRGAESVILMNAPRRPDGPALYAGKSYSAAVHLAEDVRPFVAIGQGLRERGFSAPAIHHADLDAGFLITEDLGRIGFVEGDPPAPVVARYQAATDMLAALHAKPLPDHLPLSTRESYAVPTFDEAAMMIEVGLMPEWYLPDRGAPPSEALRVEFVALWRKLLAGIATAPRTWVLRDYHSPNLIWLEDRPGIERVGVIDFQDTVLGPAAYDVVSLLQDARIDVPEAAELSLLGRYVKARLAADPEFDAPGFARLYAVMSAQRNTRLLGTFARLNRRDGKPQYLKHQPRVWAYLARSLAHPALAEVRAWYRDHVPPPL”, “failed”.
The value for “MSAWFELKQYGSGACRFLLKTKEAQTMLQSDRYPCRDSAEAALGLFRAHCASPERYVKKISSGGKPFFKLKSGKEVILVSHLYDSEATLESAISAIASAGTTERVEHIQL” was “failed”; that for “MSAYEAVRIRLDPTPRQTRLLESHAGGARFAYNLMLAHVRRQISLGEKPDWTLYAMRRWWNEWKDEIAPWWRENSKEAYGSAFEWLSQALRNWSDSRKGRRAGRRVGWPKYKSKRSSVPRFAYTTGSFGLIEDDPKALKLPRIGRVHCMENATERVHGRRIVRMTVSRHAGFWYAALTVERPTESVPAKNRKQKNRNRQVGVDLGVRTLATLSDGTTFPNPRNYVRTQRKLRHAQQSLSRRDRGMSHGCGSKRYNRALERVRRIHARIAAQRADNIGKLTTWLADNYSDISIEDLNVQGMSHNRRLAKHVLDADFREFRRQLEYKTARAGTRLHVIDRWYPSSKTCSNCGTVKAKLSLSERVYHCGKCGLVIDRDVNAAINIQVAGSAPETLNARGGSVRQTRLECGTMRHPAKREPSGGDSRVRLGAGLGNEAMQMTSL” was “failed”.
The value for “MSAYIAPSQIAQRQLEYFNGKHVLVAGEVEDMFPLELTAHCESVEVFTSNYSYFRQIRHSDKIKSHFGSEFDVETQADMLLLYWPKAKAEAEYLLAMLMAKLGVNTEIVVVGENRSGVKSIEKMFKEYGPVNKYDSARRCSFYWGNCLNEPKPFNQEEWFKSYTVTLGEQSLTVKSLPGVFSHGEFDLGSRLLLETLPNLSGKVLDFGCGAGVLGAFMAKANPEIAIEMCDINAYAITSSQATLEANGLSGRVFASDIYSDTANDYRFIISNPPFHSGLDTNYNAAETLLGHAPQHLSNHGEMIIVANSFLKYPPIIENAFNNCETLNKTNKFSIYYAKKS” was “failed”; that for “MSAYIIETLIKILILVAVFSALGGFATYIERKVLAYFQRRLGPCYVGPFGLLQVAADGIKLFTKEDIIPQGANKFIFTLAPIIAMVSAFVSMAPIPFFPNFTLFGYEIKPLISDINIGFLFFLAVGSAGIYAPILAGLASNNKYSLIGSARATIQLLSFEVVSTLTILAPLMVVGSLSLVEINHYQSGGFLDWLVFKQPLAFVLFLIASYAELNRTPFDLLEHEAEIVAGYCTEYSGLKWGMFFLAEYAHLFAFSFVISIVFFGGFNAWGFIPGGIAILIKAGFFVFLSMWVRATYPHVRPDQLMDMCWKIMLPLALLNIVLTGIIILI” was “failed”.
Take “MSCGKPQETYSTSSILTREQFEIQHQEEDTIGEQVIFIDGVAYNSRGFRVCGAPNQRGGFCARFGQCPFHKDKVTTFKMSEETVSEFPRQLLTESCNLLQNNERKFKNAWKLDEHHRFLVALKKFGHGNWRQIADYVETRSASQCQSHAQKYYLRKRKLASNANLKRSIFDLIDEDTLSVEIGEEDTWNIIQKCPSKEAQGSVRSRSKTLQRMSTDSSVESYPIRELSTVDSELSTLQTYKQASFFIRIFRNGVFSHGVDLELPNSLASFFIKAAQLLDMSVATKAYTRSGFEISSLHEVCPGDILWISSGEEFIFPSPVQYIET”: the protein production entry is “not failed”.
The value for “MSDAAISGRREQGWLAGLGNWIPARFRRDIPVVPVVRLSGTIGAVTPLRPGLTLAGVAKLLDRAFSTRNAKAVALAINSPGGSPVQSRLIYLRIRALAAEKKLPVYAFVEDVAASGGYMIACAADEIYCDPSSILGSIGVVGGGFGFQELIRKIGVERRLYTAGERKAQLDPFLPEDPQEVARLKVLQQEIHALFIALVKESRGTRLKGEESKLFTGEYWAGATSVSLGLADSIGDLRAVLRGKFGDKVRTPLISPPTGLLANLSRKSSGAGASLDGVAALPESMITALETRAIWAKYGF” was “failed”; that for “MSDEWKSETPKANDDKSWKLLEKAVLAGVQEQRRARRWGIFFKSLTFIYLFVVLLAFSPFGSLEKSASRSGSHTALIEVKGMIADDEPASADNIVTALRAAFKDEGTKGIVLRINSPGGSPVQSGYIYDEIRRLRGEHPNVKVYAVISDLGASGAYYIASAADQIYADKASLVGSIGVTAASFGFVGTMEKLGVERRVYTSGEHKSFLDPFQPQKPEETQFWQQVLDTTHKQFIDSVKKGRGDRLKVEGHPELFSGLVWSGEQALQLGLIDGLGNASYVAREVVKEKKIEDYTVQESPFDRFAKKFGASVAERLALWMGWQGPVLRLEHHHHHH” was “failed”; that for “MSDIELLETLAGTDQPRVMATIIHVEGSSYRKEGAMMLFQEDGTQVGLLSGGCLETDLTIKAQKVWQEQLPRTVVYDLSSEDDLSWGQGSGCNGTISVLLEPVDLKLRQHLKRVYDYLCAGKSVFHVKKLSTSGAVLEYAFILDESVYFGEWHSGHPVEWIRKIDENEEPLMFTHIYSPKERLIIFGAGPDVPPLVTFASNVGFYTVVTDWRPNQCEKHFFPDADEIIVDFPADFLRKFLIRPDDFVLIMTHHFQKDQEILHFLLEKELRYIGILGSKERTRRLLQNRKPPDHLYSPVGLSIDAQGPEEIAISIVAQLIQLIRSRKQASSPFSYLFQPESCKH” was “not failed”.
With “MSDIPSDLHYTAEHEWIRRSGDDTVRVGITDYAQSALGDVVFVQLPVIGTAVTAGETFGEVESTKSVSDLYAPISGKVSEVNSDLDGTPQLVNSDPYGAGWLLDIQVDSSDVAALESALTTLLDAEAYRGTLTE” the entry was “not failed”; with “MSDIVLEVQSLHVYYGAIHAIKGIDLKVPRGQIVTLIGANGAGKTTTLSAIAGLVRAQKGKIIFNGQDITNKPAHVINRMGIALVPEGRRIFPELTVYENLMMGAYNRKDKEGIKRDLEWIFSLFPRLKERLKQLGGTLSGGEQQMLAIGRALMSRPKLLMMDEPSLGLAPILVSEVFEVIQKINQEGTTILLVEQNALGALKVAHYGYVLETGQIVLEGKASELLDNEMVRKAYLGVA”, “not failed”; with “MSDLEVQVPTAFDPFADANAEDSGAGTKEYVHIRVQQRNGRKSLTTVQGLKKEYSYSKILKDLKKEFCCNGTVVQDSELGQVIQLQGDQRKNVSTFLVQAGLVKKDNIKIHGF”, “failed”.
As to “MSDLGAYIHAVETASSASALREAVIQLAQQNSTAAIPTLIAVLGYNNPAAAQAAVEGLIALGDAVVEPLLAQLDGYNYGARAYGVRVLGSIGHPAALQVLLAAAQSDFAPSVRRAATKALGTLRWQLIPEETVREAQLKEALAVLQRNSKAADWAVRYAVGVALDYLHQQAAARGIREAVRSLLNHLSDRDPDIVVRSRCQLALQRDSLSMHT”, the protein production result was “failed”.
The value for “MSDNSKTRVVVGMSGGVDSSVTALLLKEQGYDVIGIFMKNWDDTDENGVCTATEDYKDVVAVADQIGIPYYSVNFEKEYWDRVFEYFLAEYRAGRTPNPDVMCNKEIKFKAFLDYAITLGADYVATGHYARVARDEDGTVHMLRGVDNGKDQTYFLSQLSQEQLQKTMFPLGHLEKPEVRRLAEEAGLSTAKKKDSTGICFIGEKNFKNFLSNYLPAQPGRMMTVDGRDMGEHAGLMYYTIGQRGGLGIGGQHGGDNAPWFVVGKDLSKNILYVGQGFYHDSLMSTSLEASQVHFTREMPEEFTLECTAKFRYRQPDSKVTVHVKGEKTEVIFAEPQRAITPGQAVVFYDGEECLGGGLIDNAYRDGQVCQYI” was “not failed”; that for “MSDSLHTPEEPRPGPGEQLAHAHDGSLRHTRAKGEPRFPDGPKADPAGSHFERRIRSFQPRRSRVTAGQADALQRLWPKWGLDIDGHALDLTELFGNTHPVVLEIGFGMGEATARMAAEDPDTGILAVDVHTPGQGNLLNLADQHGLTNIRVANGDAIILLREMLPPDSLDGLRVYFPDPWPKKRHHKRRLIQPEFLTLAATRLRPGALVHCATDWEPYAEQMLDVLTAHPDFENTQPTGGYAPRPGFRPLTRFEGQGLDKGHVVNDLLFRRVQPRDQHRDLPPSATEAD” was “failed”.
The value for “MSDSWTERWNDRYSNEIFAYGEKPNNYLKAQLENLQPGTILFAAEGEGRNAVFAACLGWDVQAFDISSEGKKKAFQLAEKNQVTIAYQVGQLETLGYTAGQFDALALIYAHFPATVKSAYHRILSSYVRSGGYIIFEAFSKKHLDYLAKNEQVGGPKEFDMLFSIEEIKADFPDYEILELEEKEIELNEGQFHNGTGSVIRFTGRKKLEHHHHHH” was “failed”; that for “MSDTPYSLKGPARPTASTRNGKGRQDARWAERRREAAIAKLKAELAAQAALIAGQEVALAHSRKIFDRASVAARIGVWECSLPGEQLHWTDVVYDLFDLPRGAALDRSEIIKCYPAESRKALDSLRSRAIAERSGFTLDAEITTFAGHSRWIRITATVECEADVPVRIFGMKQDITEEKILSDRMRYLAEFDPMTGLANRARFQARLAQPDASRPLGALLLIDLDGFKAVNDTFGHVVGDECLKAAAERLAEGCGEADLVARVGGDEFAVLLGSHLDRAAVSGVAREIIEGMGKPVVVRGQSLRLGASVGIAFAGQGAPCDLFAQADTALYAAKAAGRNTFRIFKAEAGGKDRSAAA” was “failed”.
With “MSDWPPKPQNEVQNSNNKTGQEWQILEKAVLASVEEQRRTRRWGIFFKFLTFLYLLFVFVLLGRGCTTSESSGGTSSSTAHLAVVNIIGTIDSSNQSVNSEDTNKALERAFEAKNSKAVALNINSPGGSPVQSDEIWQEIRYLKKQHPDKKVYAVIGDMGASGAYYIASAADEIIVNPSSLVGSIGVIMPNYGITGLAQKLGIEDRTLTSGSNKDILSMTKPVNPAQREHIQSVLDNVHAHFINAVKEGRGTRLKSNDPAIFSGLFWTGEQAIQLGVADRTGNLDTLMRELKVENKVNYTIERSPFESILGKMGSELGQGISQSVSQQLKTEQQAKLQ” the entry was “failed”.
